Laboratory results reported in the DeepSol protein solubility set.

Test: soluble on expression in E. coli; label from the status in PepcDB or PDB records

Sequence | soluble on expression in E. coli
MRELRIESVHTNPYTLTLRMNGVTLNDKDDRQLLGWGNLLVNLEWSSIIDQTWTFEAIRIDKLMIQEERFVSGETRFSRLAAESSGPEAGKEKAEKEESAEMPALRIRDFKLENGILRFADNLKDVTAADDAEPKQVSLALQNIGLSVKDFTLQNDASFPLRLNGQLTKGGKLAFDGTFQLLPSPALEGNAEINELAFKQAAPYLQQFMNVQLENGTLTLNGQMSTNAQQPFAFKGSASINTLNIKEASNDETLLGWDSLQTGQFDLNIASKEIETAPIVVKGLSARVVINQDKTTNFGQLVVDTPADTKGDTNKSEETQPFGITIEGVELSDGDVQFADKSLPLPFSTSIHTLSGEVSTLSSDSSEPARVKFEGEVAEYGLAQVNGTVHAWHPTRQTTINVRFRNLQIPEYSPYTVNFAGRKIADGTMDLDLDYTVNEEKLDGQNNLVLHDLKLGEKMESSDAMDLPLDLAIALLQDSDGVIDLNLPVSGDVGNPQFDFGKVIQQAVGDAIKSVVTAPFSFLANLVGADSEEMGKVEFPEGRTHLLPPQRERIAKLREALNKRPALALELAGPFNQAFDAPALKEDKAMKVLQQRLAEEGSEVEEPSLTSESSQDAMEAIFSSHYPDTELEALKDRFTEKPSEASNEEKFDALAYRNHLAEKVIAAQSITNEELKAIANARAETVRDALVNNSESGISADRVRIREPQEVDSVEGERIAMELAVTTDLEHHHHHH | not soluble
MRETKEWRGTTSTSRVFVQKGYQLSDELALRKVQVLERRYGGMQLAHRAATVIQRAWREYCIMKQWMVIRHKHDTIPDHLDARCGVSNSQRNELSLTSRYATSLSAQLRIDRAARSTTLDRSPPSPAPPVLVNLQNSNMIDSLMSPRLGNRRFGAAASRCAPAAAELTSTEVWLPRPSLVNHNPAHSNSLPRLQLLTAWGFVKNSPDSLASLLFGRRGLSKSMIGEYIGTLHSPYHSLVLKYFTALIDIRGLEVDVALRKAMQFFILPKEAEKIDRIIQAFALHYSKSNPKRTSHYRGGWDTIHLLSFAIIMLNTDLHSPNVKQRMTQADFVKNLRGQDKISGEKNGEDIDRKTLEGIYDRIKKDELKAGDDHVAQVQRVDRAIVGKDKPRLTETPRRLVCYCRLQQVSDPTKRQSSSARERDVFLFNDMIVVAKGVRRGSTSMAGCTYTLKQWTLLLGAHVTEFQRGQYEFGLTITCPNKDKIHFNARNFEDRCHFVADVTESIREATEMEQVRLEMEMEQHTTTTIRPDNQRDSGLPDMDESMKLSNGSNSSAGSSNSSTNGVNNSSFRRLSFNSLDSGVVEEHLDAC | not soluble
MRGGVESTSTACATGLHCIGNSFRSIRYGDSRRALAGAVECALNPIALAGFDRMRALARGDQPNISRPFDKKRAGFVMSEGVGLVFMERLEDAQARGAQILAEVVGYGISSDCYHISTPDPSAIGAVLSMNRAIGNAHLEPKDIGYVNAHATSTPNGDSVEAEAVRQVFPEQNIAVSSVKGHIGHLLGAAGSVEAIATIFAMNDDVLPANRNLEETDEGNGLNLLRENQKWSDVSGNKSRISICNSFGFGATNASLILKQF | not soluble
MRGKAMNIQRFIEKRKARGLSQSELAKGICTQVTVSRFEKNGQVPTLKILIQLCNRLELPLGELFPRVGIKQPEILEKMEEAEFFLITSEHDQLQTILKNIPFDEIKDSQLLLEYYYLQGFVMIFQNASLMDCLFTFEKLLFEEQKYTSDIYRLLAFTGIGMAYAKEGEIEKAEFYFNKVFKEIYLYTIQSMEDTWRVLNVVFHCGVFYAEKGDLETSDALLEYAISICSDNHVTYYLARAAFQLAKNALAEEKPQEQILELLQDARAYAKINKNRILLEAIQTLKETILSKGN | not soluble
MRGLSLSPVVLPEVRREAGVELRKARLEDVDAIYWLIRYWAEKGLMLVRSHSHLYENIRDFWVLEDEDGQIVGTVALHVLWRDLAEIRGLAVHPTRQGQGLGRWLVLGAEREARDLGLPRVFAWTLQVNFFRALGYRVTSR | not soluble
MRGSHHHHHHGSVTTKRYTLPPLPYAYNALEPYISAEIMQLHHQKHHQGYVNGANAALEKLEKFRKGEAQIDIRAVLRDLSFHLNGHILHSIFWPNMAPPGKGGGKPGGKIADLINKFFGSFEKFKEEFSQAAKNVEGVGWAILVYEPLEEQLLILQIEKHNLMHAADAQVLLALDVWEHAYYLQYKNDRGSYVDNWWNVVNWDDVERRLQKALNGQIALKL | soluble
MRGSHHHHHHTDPNSPLDEENLTQENQDRGTHVDLGLASANVDFAFSLYKQLVLKAPDKNVIFSPLSISTALAFLSLGAHNTTLTEILKGLKFNLTETSEAEIHQSFQHLLRTLNQSSDELQLSMGNAMFVKEQLSLLDRFTEDAKRLYGSEAFATDFQDSAAAKKLINDYVKNGTRGKITDLIKDLDSQTMMVLVNYIFFKAKWEMPFDPQDTHQSRFYLSKKKWVMVPMMSLHHLTIPYFRDEELSCTVVELKYTGNASALFILPDQDKMEEVEAMLLPETLKRWRDSLEFREIGELYLPKFSISRDYNLNDILLQLGIEEAFTSKADLSGITGARNLAVSQVVHKAVLDVFEEGTEASGTTAVKITLLSALVETRTITRFNRPFLMIIVPTDTQNIFFMSKVTNPKQA | soluble
MRGSVSQEEVKKWAESLENLINHECGLAAFKAFLKSEYSEENIDFWISCEEYKKIKSPSKLSPKAKKIYNEFISVQATKEVNLDSCTREETSRNMLEPTITCFDEAQKKIFNLMEKDSYRRFLKSRFYLDLTNPSSCGAEKQKGAKSSADCTSLVPQCAHHHHHHP | soluble
MRHSLWLLLAAILSLPAQAGTECRDIHDRDLRRMCNALERGDSGDCGDIDSRDMRRYCGALLAPGQRYDCDDIRDGDTRRQCRAIVRGDRKRCDDIDSRDMRRQCRAVVSRAPWQCDGIDDRDMRRICRVILSR | soluble
MRIEVTIAKTSPLPAGAIDALAGELSRRISHHFPENLGNVTVRYATANNLSVIGASKEDKERISEILQETWESADDWFINE | not soluble
MRILSLSFSNLNSLKGEWKIDFSASPFAENGLFAITGPTGAGKTTILDAICLALYHKTPRLGGISTSSNEIMTRGTAECSAEVEFEVKGKAYRAFWSQRRSRGKVDGNLQAATVELAEVDSEKVLATQVKKKDELINTITGLDFSRFTKSMMLSQGQFAAFLNADANDRAGLLEELTGTEIYGQISEKVHEHYTASKQKLAELKAKAEGVELLSEEDKQALIDEQTELQANQKQQQAQL | not soluble
MRILVLGVGNILLTDEAIGVRIVEALEQRYILPDYVEILDGGTAGMELLGDMANRDHLIIADAIVSKKNAPGTMMILRDEEVPALFTNKISPHQLGLADVLSALRFTGEFPKKLTLVGVIPESLEPHIGLTPTVEAMIEPALEQVLAALRESGVEAIPRSDS | soluble
MRILVTNDDGIQSKGIIVLAELLSEEHEVFVVAPDKERSATGHSITIHVPLWMKKVFISERVVAYSTTGTPADCVKLAYNVVMDKRVDLIVSGVNRGPNMGMDILHSGTVSGAMEGAMMNIPSIAISSANYESPDFEGAARFLIDFLKEFDFSLLDPFTMLNINVPAGEIKGWRFTRQSRRRWNDYFEERVSPFGEKYYWMMGEVIEDDDRDDVDYKAVREGYVSITPIHPFLTNEQCLKKLREVYD | soluble
MRIPRIYHPEPLTSHSHIALCEDAANHIGRVLRMGPGQALQLFDGSNQVFDAEITSASKKSVEVKVLEGQIDDRESPLHIHLGQVMSRGEKMEFTIQKSIELGVSLITPLFSERCGVKLDSERLNKKLQQWQKIAIAACEQCGRNRVPEIRPAMDLEAWCAEQDEGLKLNLHPRASNSINTLPLPVERVRLLIGPEGGLSADEIAMTARYQFTDILLGPRVLRTETTALTAITALQVRFGDLG | soluble
MRIQIGELIRSGVLELGDGYRTKRSELSQFGYAIVRAGDVVEIGVTASDSEFVDQRFDKAIGRKTVRLGDVVITTKGTVGRVAEVSKVPNAGLAVYSPQVCYLRSLQPSILHQRYLKYLLMSPATKYSISTFASSSDMAPYLSLSDFKSMVVDLPSLEDQRAIADVLGALDDKIAENQRVIQLSEQLAMTFYRSTEKSESSLTFADVAGIYGGGTPSTKNPDFWDGEIRWATPTDITALKGPWLCGTARSITEEGLSKSSGSLHPEGSILMTSRATVGHVAFIDAPTTTNQGFINLVPQEAYRYWLYFQLKQRTSEFIAWANGATFLELSRGTFKKLPFQACAETELEKFNSVVAPLMKRVLKAQKENQVLAATRDELLPLLMNGKITVAEAKEAAGDVGVVKQNQQEEGDSSV | not soluble
MRITIAGKIGSGKSTVSSELSRITGYTVYSSGTFFRETARKMNMSIEDFNVYSESHPEADYYTDETQKAFMQANDNIIVEGRLAGWISYLNGINAFRIFLYATYYTRLVRFAGRENIDIDSARDLMEKREKSEKERYRKLYGIDVDDLSIYDIVVNTEFMKPPEIAVYIANRIDEMSRKDIFTPRILR | not soluble
MRKFIISFCCYVFFIFTLAAQDKAPHYTVIVSLDAFRWDYPAMYDTPNLNQMAREGVKATMLPSYPASTFPNHYTLATGLVPDHNGIINNTFWDVKRRRQYSMGDPATRNNPDYYLGEPIWITAQKQGVKTGNVYWVGSDIAIKGGYPTYYREYAEKPRLTFEQRVDSTIALLEKPEAERPRLVMLYFEEPDGVTHHHGPRSVEAAAIIHRMDSLVGMLRQGIASLPFGKDVNLIVTADHGMTEISDDRVVDMNKYLRPEWCEAVDGRTPTSIFTKPEYRDSVYNALKDVPHIHVWKKEEIPAELNYGSSDRIGDIVVAPELGWQFTDVPRALKGAHGYFPQSPDMQVMFRACGPDFKAGYESKGFVNVDIYPLLAHLLKITPEKTDGQFERIKDILKDVSFLEHHHHHH | not soluble
MRKICCLLFAVFILCISASCYQRKETRISQPVIMPAIQSPEDIDDYIGEKGYEILESKGKTEEYTLDKKRVYNNWQIWAVQYPEPDHYLGKEISIYSYIIRNHPLDDKSPNKKTYLSVMICENTIIGGYSSPYYEEKDISLVPIGGVYSLEGKNFEEIKNINFDRWRKRFIKKYE | not soluble
MRKIVLLSQIVRPALSSARFVHTSTPLSWQKFENERHFEPGEDVMKRVWHGLSYDFRRWKRRFQEARKDAFKRRHPIAHMKHGTLDNEVFPYRAEIVIIGGGLSGSSTAFWLKERFRDEDFKVVVVENNDVFTKSSTMLSTGGITQQFSIPEFVDMSLFTTEFLRHAGEHLRILDSEQPDINFFPTGYLRLAKTDEEVEMMRSAWKVQIERGAKVQLLSKDELTKRYPYMNVDDVLLASLGVENEGTIDTWQLLSAIREKNITLGVQYVKGEVEGFQFERHRASSEVHAFGDDATADENKLRAQRISGVLVRPQMNDASARPIRAHLIVNAAGPWAGQVAKMAGIGKGTGLLAVPVPIQPRKRDVFVIFAPDVPSDLPFIIDPSTGVFCRQTDSGQTFLVGRTPSKEEDAKRDHSNLDVDYDDFYQKIWPVLVDRVPGFQTAKVKSAWSGYQDINTFDDAPVIGEHPLYTNLHMMCGFGERGVMHSMAAARAYAERIFDGAYINVNLRKFDMRRIVKMDPITEPCRL | not soluble
MRKQKNRQRNRGRSQEIALFLDPLATSLKWLQAGRQITTEAFHNPEAGENQYRLISSGFRLSIFGRGAVRQGMNKERFTILLGGDVAVSDRLKRAVVNSRVIAADGGMRHATPLGLTPELWVGDFDSANQELLDAWPDVTRQPYPAAKAVTDGEIAVSEALLRGAHSLLLVGALGGARSDHALQHLLYAVALAERGFEVTLTSGEEEARPLLAGSLAIDLPAGSLFSVAGFTALEGLDIGNVRYPLNDFALAFGSSRTISNVANGGPVHFSLKSGKAIVLARPYDLTGALEHHHHHH | soluble
